# Measurements: patent publication US20230071765A1, “COMPOSITIONS HAVING THIOREDOXIN ACTIVITY AND RELATED METHODS” (ORPRO THERAPEUTICS, INC., priority 2020, published 2023)
# Legend:
# human insulin = target: T1, human insulin (Homo sapiens, UniProt P01308); test: RP-HPLC insulin reduction assay (conversion of insulin heterodimer); format: biochemical; conditions: for Relative % insulin reduction: relative to maximum
# T1 construct: The two chains of human insulin have a total of six Cys residues which form three disulfide bonds in its mature structure
# Experimental: Functional assays 1. Reduction state of ORP100S was quantified using DTNB which reacts with free SH groups resulting in a yellow color change at 412 nm. Fifty microliters of 2.5 mM rhTrx was added to a 96-well plate, followed by 175 microliters of sample buffer and 25 microliters of 6 mM DTNB. After reactions were initiated by the addition of DTNB, change in kinetic absorbance at 412 nm due to DTNB reduction was monitored spectrophotometrically at 30° C. ORP100S concentration was determined by A280 (Nanodrop) using the extinction coefficient of human Trx-1 (7,000). The actual concentrations of free sulfhydryl groups were calculated based on the absorbance at 412 nm and the extinction coefficient of DTNB (14,150) in order to determine the reduction state as percentage of free sulfhydryl. […] 2. Percent of free monomer ORP100S in solution was determined using SEC. Samples were analyzed on a BioBasic S-300 250×4.6 column (Thermo Scientific) run on an Agilent 1100 HPLC system. The SEC-HPLC mobile phase buffer consisted of 40 mM ammonium acetate (pH 5.5), 2 mM EDTA and 450 mM NaCl. Low pH minimized dimerization while the 450 mM NaCl concentration improved resolution. The flow rate was 0.35 mL/min and absorbance was monitored at 280 nm. The length of each run was 20 minutes. The ORP100S monomer percentage was determined by integration of the area under the peak of the monomeric fraction divided by the total area under the curve of the chromatogram. 3. Disulfide bond reduction activity of ORP100S was quantified by assaying the reduction state of a small protein (human insulin) which in its heterodimeric form contains two intermolecular and one intramolecular disulfide, all three of which are known to be suitable thioredoxin substrates. Insulin reduction has classically been used to quantify thioredoxin activity by absorbance change following addition of NADPH and TrxR (Holmgren A., 1979, Thioredoxin catalyzes the reduction of insulin disulfides by dithiothreitol and dihydrolipoamide, J Biol Chem 254:9627-32). Such an approach is not suitable for monothiol C35S thioredoxins ORP-100 and ORP100S due to 1) the lack of cycling resulting from stoichiometric covalent linkage to the disulfide bond substrate and 2) the inability of NADPH and TrxR to reduce Cys32 of the oxidized monothiol Trx active site. Consequently, a new assay was developed based on the use of reverse-phase (RP) HPLC to monitor the rate of conversion of disulfide-bonded insulin heterodimers to monomeric forms. The two chains of human insulin have a total of six Cys residues which form three disulfide bonds in its mature structure. When ORP100S in the reduced form is incubated with dimeric insulin it reacts with these disulfide bonds to disrupt them, simultaneously forming covalent linkages to the ORP100S Cys32. […] The ORP100S samples were incubated with 10 mg/mL insulin for various time points (0-90 min) and the reactions were stopped by addition of iodacetic acid (IA) and trifluoroacetic acid (TFA). Relative activity at each time point was determined from changes in the area under the insulin heterodimer peak following separation over RP-HPLC (Agilent 1100) using an Intrada WP-RP 50×3 (Imtakt) column. Buffer A was 0.1% TFA and Buffer B was 0.1% TFA in acetonitrile. The gradient was […] in 5 min followed by 30 to 60% B in 45 min, then 60 to 80% B for an additional 5 min. The flow rate was 0.2 mL/min and absorbance was measured at 280 nm. In order to evaluate the change in the intact insulin molecule a time 0 baseline was first established using 1 M IA and 0.1% TFA without the addition of ORP100S. The area under the intact insulin heterodimer peak was then determined and set as equivalent to 100%. After the reaction with ORP100S the area of the intact insulin peak (corresponding to retention time) was measured. The percent reduction in intact insulin was then calculated from the decrease in the area following reduction divided by the area at time 0 multiplied by 100.
# [1] = check for precipitates by centrifugation; format: physicochemical; conditions: 25° C., 0-232 hours
# Experimental: The stability of ORP100S without the red fraction was evaluated at room temperature (25° C.) by SEC analysis as described in the preceding Examples. Protein solutions were prepared in PBS (saline) at concentrations of 70, 80, 90, 100 and 110 mg/ml corresponding to 6.0, 6.8, 7.7, 8.5 and 9.4 mM. These were incubated at room temperature for 0, 20, 44, 68, 140, 188 and 232 hours. At each time point tubes were centrifuged at 1000 RFC to check for precipitates and percent monomeric ORP100S determined by SEC. Additionally, at the 68 hr time point DTNB assays were performed to evaluate the degree of reduction.
# T1 sequence (P01308 25-54 limits assumed): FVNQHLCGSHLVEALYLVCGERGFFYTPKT
# T1 sequence (P01308 90-110 limits assumed): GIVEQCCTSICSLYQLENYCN
molecule,measurement,setting,value
"ORP100S: thioredoxin with monothiol active site, Cys35 and non-active Cys 62, 69 and 73 substituted with serine (SEQ ID NO:29) (protein, synthetic peptide motif) MVKQIESKTAFQEALDAAGDKLVVVDFSATWCGPSKMIKPFFHSLSEKYSNVIFLEVDVDDSQDVASESEVKSMPTFQFFKKGQKVGEFSGANKEKLEATINELV",Relative % insulin reduction,human insulin; Ox:Red 0:100 mixture,100%
same,Relative % insulin reduction,human insulin; Ox:Red 25:75 mixture,72%
same,Relative % insulin reduction,human insulin; Ox:Red 50:50 mixture,51%
same,Relative % insulin reduction,human insulin; Ox:Red 75:25 mixture,36%
same,Relative % insulin reduction,human insulin; Ox:Red 100:0 mixture,8%
same,maximum insulin heterodimer reaction,"human insulin; fully reduced material, time and conditions used",45%
same,Precipitate (all time points),[1]; 70 mg/mL in PBS,None
same,Precipitate (all time points),[1]; 80 mg/mL in PBS,None
same,Precipitate (all time points),[1]; 90 mg/mL in PBS,None
same,Precipitate (all time points),[1]; 100 mg/mL in PBS,None
same,Precipitate (all time points),[1]; 110 mg/mL in PBS,None
